Laboratory results from patent US11591582, “TCRα homing endonuclease variants” (2seventy bio, Inc.).

Target: T1, TCRα2.1 megaTAL (10.5 RVD) (synthetic)
T1 chain: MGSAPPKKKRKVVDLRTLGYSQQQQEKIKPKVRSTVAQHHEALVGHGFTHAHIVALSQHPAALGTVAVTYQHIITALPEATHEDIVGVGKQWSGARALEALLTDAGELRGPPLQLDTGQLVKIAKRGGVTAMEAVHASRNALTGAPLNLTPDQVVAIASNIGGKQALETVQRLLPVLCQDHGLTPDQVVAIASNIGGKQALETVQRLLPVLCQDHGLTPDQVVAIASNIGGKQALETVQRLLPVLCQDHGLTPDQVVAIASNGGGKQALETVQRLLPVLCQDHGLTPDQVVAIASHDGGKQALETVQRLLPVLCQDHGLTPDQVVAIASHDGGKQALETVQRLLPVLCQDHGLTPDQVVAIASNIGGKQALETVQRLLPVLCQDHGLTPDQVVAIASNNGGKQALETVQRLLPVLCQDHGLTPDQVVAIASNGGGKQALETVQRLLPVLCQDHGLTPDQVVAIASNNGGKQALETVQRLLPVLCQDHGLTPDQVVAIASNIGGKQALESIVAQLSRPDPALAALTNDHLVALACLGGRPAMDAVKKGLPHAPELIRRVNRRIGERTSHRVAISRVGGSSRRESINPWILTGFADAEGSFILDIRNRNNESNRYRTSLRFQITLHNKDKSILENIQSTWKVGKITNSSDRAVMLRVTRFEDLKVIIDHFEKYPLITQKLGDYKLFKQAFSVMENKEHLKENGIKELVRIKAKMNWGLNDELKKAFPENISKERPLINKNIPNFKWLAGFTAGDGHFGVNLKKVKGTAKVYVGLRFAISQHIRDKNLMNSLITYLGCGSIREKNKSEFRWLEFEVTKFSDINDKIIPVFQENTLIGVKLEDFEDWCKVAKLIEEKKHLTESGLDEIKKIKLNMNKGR
Experiment: cell_activity; primary human T cells, CD3 knockdown
Conditions: tags: TALE fusion
Text: A single amino acid substitution, E178D, that increased catalytic activity in another I-OnuI variant was inserted at the active site of the TCRα2.0 megaTAL to generate the TCRα2.1 megaTAL (SEQ ID NO: 8). In vitro transcribed mRNA encoding the TCRα2.1 megaTAL (e.g., SEQ ID NO: 15) was electroporated into primary human T cells. The TCRα2.1 megaTAL increased CD3 knockdown 10-fold compared to the TCRα2.0 megaTAL. FIG. 5.

B1: TCRα megaTAL target site (dsDNA)
DNA 1: AAATCCAGTGACAAGTCTGTCTGCCTATTCACCGATTTT
DNA 2: AAAATCGGTGAATAGGCAGACAGACTTGTCACTGGATTT
activity: 10 fold vs TCRα2.0 megaTAL
